Laboratory results as given in article PMC9352680, “A comprehensive thermodynamic model for RNA binding by the Saccharomyces cerevisiae Pumilio protein PUF4”.
Changes are numbered by the printed parent chain. Numbers in names are those of the source.

T1: PUF4 RNA-binding domain (Saccharomyces cerevisiae, UniProt P25339 537-888)
T1 sequence: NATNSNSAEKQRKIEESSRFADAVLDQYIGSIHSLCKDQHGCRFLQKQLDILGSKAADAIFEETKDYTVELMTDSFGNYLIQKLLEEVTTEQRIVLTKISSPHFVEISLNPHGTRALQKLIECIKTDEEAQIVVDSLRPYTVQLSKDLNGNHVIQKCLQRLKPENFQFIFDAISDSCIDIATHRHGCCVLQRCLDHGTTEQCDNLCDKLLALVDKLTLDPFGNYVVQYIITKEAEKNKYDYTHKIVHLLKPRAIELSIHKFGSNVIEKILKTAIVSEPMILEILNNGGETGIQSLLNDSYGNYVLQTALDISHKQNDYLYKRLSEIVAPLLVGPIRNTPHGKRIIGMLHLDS

B1: Id_ii_S2_P3E.2_K3.1_C3.2_[C-2T]_[T-1G]_H3.1_A3.1_F3.1_T3.2 (ssRNA)
RNA: UUUGAUUAAUAUGAUAUCGUUCUUUCUUGUGUAUAUAUAUUCUUUCUCGAUAUCAUAUUAAUCUUU
B2: Id_i_S2_P3E.3_K3.2_C3.2_[C-2T]_[T-1A]_H3.2_A3.1_F3.1_T3.2 (ssRNA)
RNA: B1 RNA with G29A, G31A
B3: Id_ii_S2_P3E.2_K3.1_C3.2_[C-2A]_[T-1C]_H3.1_A3.1_F3.1_T3.2 (ssRNA)
RNA: B1 RNA with U28A, G29C
B4: Id_ii_S2_P3E.3_K3.2_C3.2_[C-2T]_[T-1C]_H3.2_A3.1_F3.1_T3.2 (ssRNA)
RNA: B1 RNA with G29C, G31A
B5: Id_ii_S2_P3E.4_K3.3_C3.2_[C-2T]_[T-1C]_H3.3_A3.1_F3.1_T3.2 (ssRNA)
RNA: B1 RNA with G29C, U30A, G31C, U32A, A33C
B6: Id_i_S2_P3E.2_K3.1_C3.2_[C-2T]_[T-1A]_H3.1_A3.1_F3.1_T3.2 (ssRNA)
RNA: B1 RNA with G29A
B7: Id_i_S2_P3E.2_K3.1_C3.2_[C-2T]_[T-1C]_H3.1_A3.1_F3.1_T3.2 (ssRNA)
RNA: B1 RNA with G29C
B8: Id_ii_S2_P3E.3_K3.2_C3.2_[C-2A]_[T-1C]_H3.2_A3.1_F3.1_T3.2 (ssRNA)
RNA: B1 RNA with U28A, G29C, G31A

molecular target: T1, PUF4 RNA-binding domain; assay: Mg; RNA-MaP; 20 mM Na-HEPES pH 7.4, 30 mM KOAc, 0.75 mM MgCl2, 0.1% Tween-20, 5% glycerol, 0.1 mg/mL BSA, 2 mM DTT; 25 C; 0.0125-409.6 nM protein; settings: tags: N-His6-TEV cleaved; C-SNAP kept, Cy3B-labelled; label: tethered on chip by stalled RNA polymerase

Binder | Kd [nM]
UCUCUUAAUAUAUAUAUAUCUCUU (ssRNA) [Id_i_S1_P3E.3_K3.2_C3.2_[C-2A]_[T-1A]_H3.2_A3.1_F3.1_T3.2] | 675
UCUCUUGUCUGUAUAUAUAUCUCUU (ssRNA) [Id_i_S1_P3E.5_K3.1_C3.3_[T-3G]_[C-2T]_[T-1C]_H3.1_A3.1_F3.1_T3.2] | 4.63
UCUCUUCACUGUAUAUAUAUCUCUU (ssRNA) [Id_i_S1_P3E.5_K3.1_C3.3_[T-3C]_[C-2A]_[T-1C]_H3.1_A3.1_F3.1_T3.2] | 5.56
UCUCUUUGUAUAAUUUCUCUU (ssRNA) [Ib_S1_P4E.1_K4.1_C4.1_H4.1_A4.1_[T7A]_F4.1_[A9T]_T4.1] | 8.41
UCUCUUCGCUAUAUAUAUAUCUCUU (ssRNA) [Id_i_S1_P3E.6_K3.2_C3.3_[T-3C]_[C-2G]_[T-1C]_H3.2_A3.1_F3.1_T3.2] | 517
UCUCUUCUCUGUAUAUAUAUCUCUU (ssRNA) [Id_i_S1_P3E.5_K3.1_C3.3_[T-3C]_[C-2T]_[T-1C]_H3.1_A3.1_F3.1_T3.2] | 4.39
UCUCUUCUGUAUAUAUAUAUCUCUU (ssRNA) [Id_i_S1_P3E.6_K3.2_C3.3_[T-3C]_[C-2T]_[T-1G]_H3.2_A3.1_F3.1_T3.2] | 8.87
UCUCUUAUCACACUAUAUAUCUCUU (ssRNA) [Id_i_S1_P3E.7_K3.3_C3.3_[T-3A]_[C-2T]_[T-1C]_H3.3_A3.1_F3.1_T3.2] | 1520
UCUCUUGUCUAUAUAUAUAUCUCUU (ssRNA) [Id_i_S1_P3E.6_K3.2_C3.3_[T-3G]_[C-2T]_[T-1C]_H3.2_A3.1_F3.1_T3.2] | 102
B1 | 1.57
B2 | 560
B3 | 1.6
B4 | 71.4
B5 | 222
B6 | 4.51
B7 | 1.18
B8 | 66.8
UCUCUUAGCUGUAUAUAUAUCUCUU (ssRNA) [Id_i_S1_P3E.5_K3.1_C3.3_[T-3A]_[C-2G]_[T-1C]_H3.1_A3.1_F3.1_T3.2] | 7.66
UCUCUUAACACACUAUAUAUCUCUU (ssRNA) [Id_i_S1_P3E.7_K3.3_C3.3_[T-3A]_[C-2A]_[T-1C]_H3.3_A3.1_F3.1_T3.2] | 2180

Binder | Kd [nM]
UCUCUUUCUAUAUAUAUAUCUCUU (ssRNA) [Id_ii_S1_P3E.3_K3.2_C3.2_[C-2T]_[T-1C]_H3.2_A3.1_F3.1_T3.2] | 368
UCUCUUAGCUAUAUAUAUAUCUCUU (ssRNA) [Id_i_S1_P3E.6_K3.2_C3.3_[T-3A]_[C-2G]_[T-1C]_H3.2_A3.1_F3.1_T3.2] | 805
UCUCUUUCACACUAUAUAUCUCUU (ssRNA) [Id_i_S1_P3E.4_K3.3_C3.2_[C-2T]_[T-1C]_H3.3_A3.1_F3.1_T3.2] | > 2300
UCUCUUAGACACUAUAUAUCUCUU (ssRNA) [Id_ii_S1_P3E.4_K3.3_C3.2_[C-2A]_[T-1G]_H3.3_A3.1_F3.1_T3.2] | > 2300
UCUCUUCUAACACUAUAUAUCUCUU (ssRNA) [Id_i_S1_P3E.7_K3.3_C3.3_[T-3C]_[C-2T]_[T-1A]_H3.3_A3.1_F3.1_T3.2] | > 2300
UCUCUUAACUGUAUAUAUAUCUCUU (ssRNA) [Id_i_S1_P3E.5_K3.1_C3.3_[T-3A]_[C-2A]_[T-1C]_H3.1_A3.1_F3.1_T3.2] | 6.08
UCUCUUGCACACUAUAUAUCUCUU (ssRNA) [Id_i_S1_P3E.4_K3.3_C3.2_[C-2G]_[T-1C]_H3.3_A3.1_F3.1_T3.2] | 116
UCUCUUGGCUGUAUAUAUAUCUCUU (ssRNA) [Id_i_S1_P3E.5_K3.1_C3.3_[T-3G]_[C-2G]_[T-1C]_H3.1_A3.1_F3.1_T3.2] | 6.92
UCUCUUAAAUAUAUAUAUAUCUCUU (ssRNA) [Id_i_S1_P3E.6_K3.2_C3.3_[T-3A]_[C-2A]_[T-1A]_H3.2_A3.1_F3.1_T3.2] | 1040
UCUCUUCAAACACUAUAUAUCUCUU (ssRNA) [Id_i_S1_P3E.7_K3.3_C3.3_[T-3C]_[C-2A]_[T-1A]_H3.3_A3.1_F3.1_T3.2] | 2040
UCUCUUCUAUAUAUAUAUAUCUCUU (ssRNA) [Id_i_S1_P3E.6_K3.2_C3.3_[T-3C]_[C-2T]_[T-1A]_H3.2_A3.1_F3.1_T3.2] | 341
UCUCUUCUCUAUAUAUAUAUCUCUU (ssRNA) [Id_i_S1_P3E.6_K3.2_C3.3_[T-3C]_[C-2T]_[T-1C]_H3.2_A3.1_F3.1_T3.2] | 389
UCUCUUCGCUGUAUAUAUAUCUCUU (ssRNA) [Id_i_S1_P3E.5_K3.1_C3.3_[T-3C]_[C-2G]_[T-1C]_H3.1_A3.1_F3.1_T3.2] | 8.53
UCUCUUCAAUAUAUAUAUAUCUCUU (ssRNA) [Id_i_S1_P3E.6_K3.2_C3.3_[T-3C]_[C-2A]_[T-1A]_H3.2_A3.1_F3.1_T3.2] | 777
UCUCUUACUAUAUAUAUAUCUCUU (ssRNA) [Id_i_S1_P3E.3_K3.2_C3.2_[C-2A]_[T-1C]_H3.2_A3.1_F3.1_T3.2] | 458
UCUCUUCAAUGUAUAUAUAUCUCUU (ssRNA) [Id_i_S1_P3E.5_K3.1_C3.3_[T-3C]_[C-2A]_[T-1A]_H3.1_A3.1_F3.1_T3.2] | 7.95
UCUCUUAUCUGUAUAUAUAUCUCUU (ssRNA) [Id_i_S1_P3E.5_K3.1_C3.3_[T-3A]_[C-2T]_[T-1C]_H3.1_A3.1_F3.1_T3.2] | 6.91
UCUCUUUGUAUACUUUCUCUU (ssRNA) [Ic_S1_P4E.1_K4.1_C4.1_H4.1_A4.1_[T7C]_F4.1_[A9T]_T4.1] | 5.99
UCUCUUAGUAUAUAUAUAUCUCUU (ssRNA) [Id_i_S1_P3E.3_K3.2_C3.2_[C-2A]_[T-1G]_H3.2_A3.1_F3.1_T3.2] | 576

Binder | Kd [nM]
UCUCUUAAAUGUAUAUAUAUCUCUU (ssRNA) [Id_i_S1_P3E.5_K3.1_C3.3_[T-3A]_[C-2A]_[T-1A]_H3.1_A3.1_F3.1_T3.2] | 10.3
UCUCUUGGCACACUAUAUAUCUCUU (ssRNA) [Id_i_S1_P3E.7_K3.3_C3.3_[T-3G]_[C-2G]_[T-1C]_H3.3_A3.1_F3.1_T3.2] | 821
UCUCUUGUUAUAUUAUCUCUU (ssRNA) [Ib_S1_P4E.1_K4.1_C4.1_H4.1_[T1G]_[G2T]_A4.1_F4.1_T4.1] | 12.3
UCUCUUAAAACACUAUAUAUCUCUU (ssRNA) [Id_i_S1_P3E.7_K3.3_C3.3_[T-3A]_[C-2A]_[T-1A]_H3.3_A3.1_F3.1_T3.2] | 2250
UCUCUUUGUAUAGUUUCUCUU (ssRNA) [Ic_S1_P4E.1_K4.1_C4.1_H4.1_A4.1_[T7G]_F4.1_[A9T]_T4.1] | 9.53
UCUCUUUAUAUAUAUAUAUCUCUU (ssRNA) [Id_i_S1_P3E.3_K3.2_C3.2_[C-2T]_[T-1A]_H3.2_A3.1_F3.1_T3.2] | 439
UCUCUUCUAUGUAUAUAUAUCUCUU (ssRNA) [Id_i_S1_P3E.5_K3.1_C3.3_[T-3C]_[C-2T]_[T-1A]_H3.1_A3.1_F3.1_T3.2] | 10.2
UCUCUUCUCACACUAUAUAUCUCUU (ssRNA) [Id_i_S1_P3E.7_K3.3_C3.3_[T-3C]_[C-2T]_[T-1C]_H3.3_A3.1_F3.1_T3.2] | > 2300
UCUCUUACACACUAUAUAUCUCUU (ssRNA) [Id_i_S1_P3E.4_K3.3_C3.2_[C-2A]_[T-1C]_H3.3_A3.1_F3.1_T3.2] | 998
UCUCUUGACUAUAUAUAUAUCUCUU (ssRNA) [Id_i_S1_P3E.6_K3.2_C3.3_[T-3G]_[C-2A]_[T-1C]_H3.2_A3.1_F3.1_T3.2] | 806
UCUCUUAUCUAUAUAUAUAUCUCUU (ssRNA) [Id_i_S1_P3E.6_K3.2_C3.3_[T-3A]_[C-2T]_[T-1C]_H3.2_A3.1_F3.1_T3.2] | 650
UCUCUUUAACACUAUAUAUCUCUU (ssRNA) [Id_ii_S1_P3E.4_K3.3_C3.2_[C-2T]_[T-1A]_H3.3_A3.1_F3.1_T3.2] | 2160
UCUCUUCACUAUAUAUAUAUCUCUU (ssRNA) [Id_i_S1_P3E.6_K3.2_C3.3_[T-3C]_[C-2A]_[T-1C]_H3.2_A3.1_F3.1_T3.2] | 144
UCUCUUAAACACUAUAUAUCUCUU (ssRNA) [Id_i_S1_P3E.4_K3.3_C3.2_[C-2A]_[T-1A]_H3.3_A3.1_F3.1_T3.2] | > 2300
UCUCUUUGACACUAUAUAUCUCUU (ssRNA) [Id_i_S1_P3E.4_K3.3_C3.2_[C-2T]_[T-1G]_H3.3_A3.1_F3.1_T3.2] | 2180
UCUCUUAGCACACUAUAUAUCUCUU (ssRNA) [Id_i_S1_P3E.7_K3.3_C3.3_[T-3A]_[C-2G]_[T-1C]_H3.3_A3.1_F3.1_T3.2] | > 2300
UCUCUUGCUAUAUUAUCUCUU (ssRNA) [Ib_S1_P4E.1_K4.1_C4.1_H4.1_[T1G]_[G2C]_A4.1_F4.1_T4.1] | 481
UCUCUUGUCACACUAUAUAUCUCUU (ssRNA) [Id_i_S1_P3E.7_K3.3_C3.3_[T-3G]_[C-2T]_[T-1C]_H3.3_A3.1_F3.1_T3.2] | 39
